# Results from article PMC11157650.
# B1: Recombinant anti-StrepTag IgM protomer (two mu heavy chains and two kappa light chains) (antibody, V domains shown)
# VH: EVQLEQSGPELVKPGASVKMSCKASGYTFTNYYMKWVKQSHGKSLEWIGDLNPNNGDTFYNQKFKGKATLTVDKSSNTAYMQLNSLTSEDSAVYYCARTGRYEENAMDYWGQGTSVTVSS
# VL: ELVMTQSPASLAVSLGQRATISCRASESVDSYGKSFMHWYQLKPGQPPKLLIYRASNLESGVPARFSGSGSRTDFTLTIDPVEADDAATYYCQQNNEDPWTFGGGTKLEIK
# Columns and labels:
# [1] = target: Fc part of the IgM protomer left after IgMBRAZOR cleavage (two mu chain fragments from Ala344 to the C-terminus) (human); assay: SEC + native MS; online SEC-Orbitrap-based CDMS of IgM co-expressed with the J-chain, undigested or digested with IgMBRAZOR; sample in PBS, 0.5 μg injected; mobile phase 100 mM ammonium acetate pH 6.8; the oligomer is held by disulfide bonds
# [2] = target: Recombinant anti-StrepTag IgM protomer (two mu heavy chains and two kappa light chains); assay: as above
molecule,measurement,setting,value
Fc part of the IgM protomer left after IgMBRAZOR cleavage (two mu chain fragments from Ala344 to the C-terminus) (domain or fragment),stoichiometry N,[1],5
B1,stoichiometry N,[2],5
